The text below walks through data of patent US20110002929A1 (Ablynx, published 2011).

Experiment [1] concerns the target T1, human RANK-L (human, UniProt O14788 140-317, limits assumed).
T1 sequence (looked up): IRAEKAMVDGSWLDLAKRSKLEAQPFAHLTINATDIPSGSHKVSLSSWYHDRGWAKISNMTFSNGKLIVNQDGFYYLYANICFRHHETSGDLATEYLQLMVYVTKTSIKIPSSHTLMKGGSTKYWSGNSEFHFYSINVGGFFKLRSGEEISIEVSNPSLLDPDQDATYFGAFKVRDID
Kind of experiment: cell-based or functional assay.

In experiment [2] the target is T1, human RANK-L. Kind of experiment: AlphaScreen, biotin-hRANK-L / RANK-huFc beads. Background: Alpha assays give light when donor and acceptor beads are brought close together.
The target of experiment [3] is T2, cynomolgus RANK-L, full length, membrane-bound, expressed on HEK293T cells (cynomolgus monkey, UniProt A0A7N9DBU4 1-317).
T2 construct: whole, on cells; also called cyno RANK-L
T2 sequence: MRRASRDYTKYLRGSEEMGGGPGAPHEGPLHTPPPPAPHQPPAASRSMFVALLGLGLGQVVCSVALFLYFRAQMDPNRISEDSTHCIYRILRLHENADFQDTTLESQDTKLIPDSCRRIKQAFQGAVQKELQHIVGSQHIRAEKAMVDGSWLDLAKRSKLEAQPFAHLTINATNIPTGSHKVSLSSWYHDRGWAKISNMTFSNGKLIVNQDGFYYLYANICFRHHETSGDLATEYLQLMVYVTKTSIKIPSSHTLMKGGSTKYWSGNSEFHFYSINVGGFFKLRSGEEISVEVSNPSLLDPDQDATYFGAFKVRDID
Kind of experiment: FACS, HEK293T with cynomolgus RANK-L, 2000 pM Nanobody. The protocol: (§1) Human embryonic kidney cells (HEK293T) were grown in Dulbecco's modified Eagles's medium supplemented with 10% fetal bovine serum (FBS), […] L-glutamine, 0.4 mM sodium pyruvate. […] After 48 hours, transfected cells were subjected to FACS analysis. […] Then cells were washed three times with FACS buffer. Bound Nanobodies were detected by subsequent incubations of a primary mouse anti Myc antibody (30 min at 4° C. (2 μg/ml)) and a second incubation with goat anti mouse-Phycoerythrin (PE) (Jackson Laboratories) for another 30 min at 4° C. Finally, after washing, the cells were resuspended in PBS+10% FBS+TO-PRO®-3 (5 nM) (Molecular Probes®, Invitrogen, Merelbeke, Belgium) and cell surface fluorescence expressed as mean PE fluorescence, was measured using flow cytometry.
(In general: Flow cytometry measures light scatter and fluorescence of single cells or particles in a stream.)

For experiment [4], the target named is T3, human RANK-L, full length, membrane-bound, expressed on HEK293T cells (human, UniProt O14788 1-317).
T3 construct: whole, on cells; also called hRANK-L
T3 sequence (looked up): T2 sequence with T32A, L68F, S83G, N174D, T177S, V291I
Kind of experiment: FACS, HEK293T with human RANK-L, 3.2 pM Nanobody. The procedure:
as §1

Experiment [5] addresses T4, mouse RANK-L (mouse, UniProt O35235 158-316, limits assumed).
T4 construct: also called murine RANK-L
T4 sequence (looked up): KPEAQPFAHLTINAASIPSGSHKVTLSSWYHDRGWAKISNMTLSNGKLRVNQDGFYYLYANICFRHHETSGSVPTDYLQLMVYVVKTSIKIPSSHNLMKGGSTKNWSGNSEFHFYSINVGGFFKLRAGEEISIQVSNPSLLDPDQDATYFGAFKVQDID
Kind of experiment: ELISA, set-up as for human RANK-L. The procedure: (§2) Therefore 2 μg/ml neutravidin was coated overnight at 4° C. The plates were washed 5 times with 300 μl PBS and then blocked with […] 1% casein/PBS for 2 hours at room temperature. […] After extensive washing with PBS, varying concentrations of Nanobodies starting from 500 nM to 160 pM diluted in 1% casein/PBS were added to the wells and the plates were incubated for 1 hour at room temperature. Bound Nanobodies were detected by subsequent incubations of a primary mouse anti-myc antibody and a secondary anti mouse-HRP conjugate (DAKO, Glostrup, Denmark) and using TMB-H2O2 (Pierce, Rockford, Ill., USA) substrate cocktail. The reaction was stopped with H₂SO₄ and the OD was read at 450 nm.
A general note: ELISA stands for enzyme-linked immunosorbent assay.

Experiment [6] deals with T1, human RANK-L. Kind of experiment: AlphaScreen, biotin-hRANK-L / RANK-huFc beads. The protocol: To this mixture, the RANK acceptor beads and the streptavidin donor beads were added and further incubated for 1 hour at room temperature. Fluorescence was measured by reading plates on the EnVision Multilabel Plate Reader (Perkin Elmer) using an excitation wavelength of 680 nm and an emission wavelength of 520 nm.
This is another data set of the same source.

Experiment [7] addresses T3, human RANK-L, full length, …. Put plainly: FACS, HEK293T with human RANK-L, 16 pM Nanobody. The protocol:
as §1

The target of experiment [8] is T2, cynomolgus RANK-L, full length, …. Kind of experiment: FACS, HEK293T with cynomolgus RANK-L, 400 pM Nanobody. The procedure: as §1
Experiment [9] deals with T3, human RANK-L, full length, …. Put plainly: FACS, HEK293T with human RANK-L, 400 pM Nanobody. The protocol:
as §1

Experiment [10] has the same target. Kind of experiment: FACS, HEK293T with human RANK-L, 80 pM Nanobody. The protocol:
as §1

The target is the same in experiment [11]. Put plainly: FACS, HEK293T with human RANK-L, 2000 pM Nanobody. The protocol: as §1
Experiment [12] has as its target T1, human RANK-L. Put plainly: FMAT, ALEXA647-hRANK-L / RANK on HEK293T cells. The procedure: HEK293T cells were transiently transfected with the plasmid expressing full length RANK using Fugene6 as described in example 3. After 24 hours aliquots of 60 μl (7.5×10³ cells) were plated into FMAT system 384-well plates (PE Biosystems, CA, US) and allowed to adhere for 24 h. After overnight adherence, culture supernatant was removed by gently tapping the plate. […] The plates were scanned after 10 hours of incubation. Cell surface fluorescence was measured by 8200 Cellular Detection System (Applied Biosystems, Foster City, Calif., US) which is a fluorescence macro-confocal, biological binding event analyzer that enables mix-and-read assays with live cells.

Experiment [13] has as its target T5, TNFα (UniProt P01375 77-233).
T5 construct: also called TNF-alpha
Put plainly: competition ELISA on RANK-L-coated plates, 1 nM Nanobody preincubated with the ligand.

Experiment [14] addresses T6, TRAIL (UniProt P50591 114-281, limits assumed).
T6 construct: also called tumor necrosis factor-related apoptosis inducing ligand
The description is as above.

The target in the next experiment is T7, CD40 ligand (UniProt P29965 113-261, limits assumed).
T7 sequence (looked up): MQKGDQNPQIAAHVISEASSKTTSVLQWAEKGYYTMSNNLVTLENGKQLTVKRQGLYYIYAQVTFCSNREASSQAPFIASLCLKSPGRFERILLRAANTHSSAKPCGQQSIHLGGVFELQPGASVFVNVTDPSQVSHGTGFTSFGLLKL
Described as above.

Experiment [15] has as its target T1, human RANK-L. Put plainly: ELISA (ED50), biotin-hRANK-L on neutravidin. The procedure:
as §2

Experiment [16] has as its target T1, human RANK-L. Kind of experiment: FMAT, ALEXA647-hRANK-L / RANK on HEK293T cells. This is another data set of the same source.
Experiment [17] concerns the target T1, human RANK-L. Put plainly: AlphaScreen, biotin-hRANK-L / RANK-huFc beads. This is another data set of the same source.
The target of experiment [18] is T5, TNFα. Put plainly: competition ELISA on human RANK-L-coated plates, 100 pM Nanobody preincubated with the ligand.
The target of experiment [19] is T6, TRAIL. Described as above.
Experiment [20] has as its target T4, mouse RANK-L. The experiment is described as above.
For experiment [21], the target named is T4, mouse RANK-L. Put plainly: ELISA (ED50) on murine RANK-L, set-up as for human RANK-L. The protocol: as §2

Numbering of substitutions follows the chain as printed.

T5 sequence (P01375 77-233 limits assumed): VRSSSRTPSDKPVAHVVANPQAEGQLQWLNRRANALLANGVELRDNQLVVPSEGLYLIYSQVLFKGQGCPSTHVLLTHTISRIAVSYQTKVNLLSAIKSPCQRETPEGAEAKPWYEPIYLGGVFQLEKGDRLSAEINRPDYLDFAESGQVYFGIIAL
T6 sequence (P50591 114-281 limits assumed): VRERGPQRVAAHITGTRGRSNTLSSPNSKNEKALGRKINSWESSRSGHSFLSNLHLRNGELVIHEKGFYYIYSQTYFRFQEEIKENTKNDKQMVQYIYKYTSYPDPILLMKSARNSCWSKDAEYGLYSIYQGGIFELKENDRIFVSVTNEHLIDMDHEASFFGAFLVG

B1: RANKL15 (VHH, not shown: small tags and cut ends)
VHH: EVQLVESGGGLVQAGGSLRLSCAAAGGTFRNYVMGWFRQAPGKEREFVTAISTGGSWTGYVDSVKDRFTISRDNTKNTVYLQMASLKPEDTAVYYCAATTPATTYLPRSERQYDYWGQGTQVTVSS
For B1, the “RANK-L induced NF-kappaB activation (luciferase reporter, HEK293T cells), IC50” value with human RANK-L [1] was found to be 10 nM. The IC50 in the experiment with human RANK-L [2] came out at 0.572 nM; with human RANK-L [6] it was 0.283 nM; with human RANK-L [12], 0.534 nM. Besides, the PE mean fluorescence in experiment [3] came to 11000; in experiment [4], 124; in experiment [7] it was 250; in [8], 3410; in [9], 2640; in experiment [10] it was 715. Also, in experiment [11], the PE mean fluorescence was found to be 7720. The binding result was “no binding (tested: 500 nM to 160 pM)” in the experiment with mouse RANK-L [5], “no binding (tested: approximately 100 nM)” with TNFα [13], “no binding (tested: approximately 100 nM)” in the experiment with TRAIL [14] and “no binding (tested: approximately 100 nM)” in the experiment with CD40 ligand. The EC50 in the experiment with human RANK-L [15] was determined as 0.266 nM.

B2: RANKL003p (VHH)
chain: EVQLVESGGGLVQPGGSLRLSCAASGRTFSRSAMGWFRQAPGKGREFVGFITGSGGTTYYADSVKGRFTISRDNAQNPVYLQMNSLRPEDTAVYYCAVYRRTYISSTYSESSEYDYWGQGTLVTVSSGGGGSGGGGSGGGGSGGGGSGGGGSGGGGSEVQLVESGGGLVQPGGSLRLSCAASGRTFSRSAMGWFRQAPGKGREFVGFITGSGGTTYYADSVKGRFTISRDNAQNPVYLQMNSLRPEDTAVYYCAVYRRTYISSTYSESSEYDYWGQGTLVTVSSGGGC
modifications: PEG (3-Maleimidoproprionamide, 1,3-bis(Methoxy poly (ethylene glycol) modified 2-glycerol), Average MW 40,000) coupled after DTT reduction; the entry ends in GGGC
notes: Bivalent pegylated humanized Nanobody; also called RANKL3p; RANKL18hum6-30GS-RANKL18hum6-PEG
Consider B2, for which the IC50 with human RANK-L [16] came to 0.038 nM; with human RANK-L [17], 0.025 nM. Further, the binding result with TNFα [18], with TRAIL [19] and with mouse RANK-L [20] was “no binding (tested: 10 nM)” in each case.

B3: RANKL3 (VHH, not shown: small tags and cut ends)
VHH: EVQLVESGGKLVQAGGSLRLSCAVSGRTSSIYNMAWFRQGPGKGRESVGRIYWSDDNTYYADSVKGRFTISRDNATNTVYLQMNSLKPEDTAVYYCAGKTTKWSLEYDYWGQGTQVTVSS
For the molecule B3, in the experiment with human RANK-L [1], the “RANK-L induced NF-kappaB activation (luciferase reporter, HEK293T cells), IC50” value stood at 8.32 nM. Also, the values for the IC50 with human RANK-L [2] and with human RANK-L [6] were 0.474 nM and 0.497 nM, respectively. For the same molecule, the figures for the EC50 with mouse RANK-L [21] and with human RANK-L [15] were approximately 0.6 nM and 0.568 nM, respectively.

B4: RANKL001p (VHH)
chain: EVQLVESGGGLVQPGGSLRLSCAASGFTFSSYPMGWFRQAPGKGREFVSSITGSGGSTYYADSVKGRFTISRDNAKNTLYLQMNSLRPEDTAVYYCAAYIRPDTYLSRDYRKYDYWGQGTLVTVSSGGGGSGGGSEVQLVESGGGLVQPGGSLRLSCAASGFTFSSYPMGWFRQAPGKGREFVSSITGSGGSTYYADSVKGRFTISRDNAKNTLYLQMNSLRPEDTAVYYCAAYIRPDTYLSRDYRKYDYWGQGTLVTVSSGGGC
modifications: PEG (3-Maleimidoproprionamide, 1,3-bis(Methoxy poly (ethylene glycol) modified 2-glycerol), Average MW 40,000) coupled after DTT reduction; the entry ends in GGGC
notes: Bivalent pegylated humanized Nanobody; also called RANKL13hum5-9GS-RANKL13hum5-PEG
As for B4, the IC50 is 0.041 nM with human RANK-L [16] and 0.049 nM with human RANK-L [17]. The binding result with TNFα [18], in the experiment with TRAIL [19] and in the experiment with mouse RANK-L [20] was “no binding (tested: 10 nM)” in each case.

The IC50 is the concentration needed to halve the response being measured. A word on the EC50: it is the concentration that produces a half-maximal response. Higher therefore signals a less potent agent.
